According to patent publication US20070185028A1 (published 2007):
No end group written: not given here.

T1: Human γD crystallin (human, UniProt P07320 2-174, limits assumed)
T1 construct: Used unheated (23° C) and pre-heated (45° C, 15 min)
T1 sequence (looked up): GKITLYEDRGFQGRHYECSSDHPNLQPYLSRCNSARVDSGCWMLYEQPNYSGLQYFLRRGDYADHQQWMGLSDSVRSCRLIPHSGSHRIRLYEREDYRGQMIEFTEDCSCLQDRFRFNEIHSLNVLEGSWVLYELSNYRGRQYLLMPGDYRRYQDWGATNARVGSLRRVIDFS

T2: Porcine Citrate synthase (porcine, UniProt P00889 28-464)
T2 construct: also called CS
T2 sequence (looked up): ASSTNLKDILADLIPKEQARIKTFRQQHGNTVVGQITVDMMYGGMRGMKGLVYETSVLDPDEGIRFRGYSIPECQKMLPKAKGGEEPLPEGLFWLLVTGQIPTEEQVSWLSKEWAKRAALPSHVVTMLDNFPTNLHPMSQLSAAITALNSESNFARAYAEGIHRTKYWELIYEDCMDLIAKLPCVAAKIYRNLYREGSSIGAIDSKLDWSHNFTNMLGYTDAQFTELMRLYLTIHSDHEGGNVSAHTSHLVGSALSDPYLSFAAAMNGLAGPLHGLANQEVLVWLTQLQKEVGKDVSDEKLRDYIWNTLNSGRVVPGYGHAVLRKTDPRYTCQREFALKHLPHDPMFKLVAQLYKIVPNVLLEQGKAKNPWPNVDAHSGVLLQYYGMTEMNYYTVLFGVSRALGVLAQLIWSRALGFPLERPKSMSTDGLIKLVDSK

B1: FSVNLDVK (peptide)
peptide: FSVNLDVK
modifications: also: covalently bound to polyethylene pin
notes: pin-immobilised 8-mer of human αB crystallin; also called β3
B2: EFHRKYRI (peptide)
peptide: EFHRKYRI
notes: pin-immobilised 8-mer of human αB crystallin
B3: DQFFGEHL (peptide)
peptide: DQFFGEHL
notes: pin-immobilised 8-mer of human αB crystallin; also called peptide 13
B4: HGFISREF (peptide)
peptide: HGFISREF
notes: pin-immobilised 8-mer of human αB crystallin; also called peptide 56
B5: LTITSSLS (peptide)
peptide: LTITSSLS
modifications: also: covalently bound to polyethylene pin
notes: pin-immobilised 8-mer of human αB crystallin; also called β8
B6: FYLRPPSF (peptide)
peptide: FYLRPPSF
notes: pin-immobilised 8-mer of human αB crystallin; also called peptide 24
B7: WIRRPFFP (peptide)
peptide: WIRRPFFP
notes: pin-immobilised 8-mer of human αB crystallin; also called peptide 5
B8: SLSPFYLR (peptide)
peptide: SLSPFYLR
notes: pin-immobilised 8-mer of human αB crystallin; also called peptide 22
B9: GVLTVNGP (peptide)
peptide: GVLTVNGP
modifications: also: covalently bound to polyethylene pin
notes: pin-immobilised 8-mer of human αB crystallin; also called β9
B10: PFFPFHSP (peptide)
peptide: PFFPFHSP
notes: pin-immobilised 8-mer of human αB crystallin; also called 13 PFFPFHSP20
B11: SFLRAPSW (peptide)
peptide: SFLRAPSW
notes: as for B2
B12: IAIHHPWI (peptide)
peptide: IAIHHPWI
notes: pin-immobilised 8-mer of human αB crystallin; also called peptide 2
B13: FPFHSPSR (peptide)
peptide: FPFHSPSR
notes: pin-immobilised 8-mer of human αB crystallin; also called peptide 8
B14: LRAPSWFD (peptide)
peptide: LRAPSWFD
notes: pin-immobilised 8-mer of human αB crystallin; also called peptide 28
B15: FISREFHR (peptide)
peptide: FISREFHR
notes: pin-immobilised 8-mer of human αB crystallin; also called peptide 57
B16: LTVNGPRK (peptide)
peptide: LTVNGPRK
notes: pin-immobilised 8-mer of human αB crystallin; also called peptide 72
B17: RTIPITRE (peptide)
peptide: RTIPITRE
notes: pin-immobilised 8-mer of human αB crystallin; also called peptide 79

Biological target: T1, Human γD crystallin
Experiment: protein pin array ELISA, A450; listed as peak peptide with unheated and pre-heated target

Row | Binder | binding result
1 | B1 | binds
2 | B2 | binds
3 | B3 | binds
4 | B4 | binds
5 | B5 | binds
6 | B6 | binds
7 | B7 | binds
8 | B8 | binds
9 | B9 | binds
10 | B10 | binds
11 | B11 | binds
12 | B12 | binds

Biological target: T2, Porcine Citrate synthase
Experiment: as above

Row | Binder | binding result
13 | B1 | binds
14 | B13 | binds
15 | B14 | binds
16 | B5 | binds
17 | B15 | binds
18 | B6 | binds
19 | B7 | binds
20 | B16 | binds
21 | B17 | binds
22 | B8 | binds

Biological target: β2-microglobulin (UniProt P61769 21-119)
Sequence (P61769 21-119 limits assumed): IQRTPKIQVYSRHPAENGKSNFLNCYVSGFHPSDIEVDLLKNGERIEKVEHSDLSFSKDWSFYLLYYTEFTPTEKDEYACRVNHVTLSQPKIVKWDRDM
Experiment: cell-based or functional assay

Row | Binder | β2m fibrillation, ThT fluorescence, 1:1 peptide:β2m (29 µM) [% inhibition]
23 | RQDE | ~100
24 | EERQDE | ~100
25 | EERQ | ~100

Biological target: Amyloid-beta (1-42) (UniProt P05067)
Experiment: cell-based or functional assay

Row | Binder | pH induced aggregation of amyloid-beta at pH 5.2, light scattering 360 nm (amyloid-beta alone = 100%) [% aggregation]
26 | DRFSVNLDVKHFS | 4
27 | LTITSSLSDGV | 15
28 | HGKHEERQDE | 30

Biological target: transthyretin (UniProt P02766 21-147)
Experiment: cell-based or functional assay

Row | Binder | TTR fibrillation, ThT fluorescence, 1:1 peptide:TTR (16 µM) [% inhibition]
29 | HGKHEERQ | ~100
30 | EERQDE | ~100
31 | HEER | ~100

Biological target: Equine Alcohol dehydrogenase (equine, UniProt P00327 2-375)
Sequence (P00327 2-375 limits assumed): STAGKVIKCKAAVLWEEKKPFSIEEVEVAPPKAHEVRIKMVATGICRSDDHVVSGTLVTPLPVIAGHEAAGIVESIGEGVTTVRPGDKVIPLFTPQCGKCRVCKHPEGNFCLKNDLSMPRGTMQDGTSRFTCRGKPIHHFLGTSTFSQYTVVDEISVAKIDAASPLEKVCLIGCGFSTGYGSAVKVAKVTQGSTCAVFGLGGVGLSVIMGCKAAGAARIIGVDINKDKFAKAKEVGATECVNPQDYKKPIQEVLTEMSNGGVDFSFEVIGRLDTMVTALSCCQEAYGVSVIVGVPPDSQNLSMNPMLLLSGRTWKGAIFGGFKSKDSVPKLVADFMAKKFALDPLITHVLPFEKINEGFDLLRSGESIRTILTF
Experiment: cell-based or functional assay

Row | Binder | protection against thermal aggregation at 50° C, light scattering 340 nm, 50:1 peptide:target [% protection]
32 | DRFSVNLDVKHFS | ~30
33 | LTITSSLSDGV | ~30

Biological target: Bovine βH crystallin (bovine)
Experiment: cell-based or functional assay

Row | Binder | protection against thermal aggregation at 50° C, light scattering 340 nm, 50:1 peptide:target [% protection]
34 | DRFSVNLDVKHFS | ~30
35 | LTITSSLSDGV | ~30

Biological target: T2, Porcine Citrate synthase
Experiment: protein pin array

Row | Binder | binding result
36 | B9 | binds

Biological target: T1, Human γD crystallin
Experiment: cell-based or functional assay

Row | Binder | Δfluorescence (γD crystallin), Thioflavin T, 72 h at 50° C (no chaperone: 888,803,840)
37 | DRFSVNLDVKHFS | 6.61e+08
38 | LTITSSLSSDGV | 6.75e+08
39 | STSLSPFYLRPPSFLRAP | 6.06e+08
40 | ERTIPITRE | 6.11e+08
41 | HGKHEERQDE | 7.34e+08

Biological target: beta amyloid (UniProt P05067 672-713, limits assumed)
Experiment: cell-based or functional assay

Row | Binder | Δfluorescence (Aβ), Thioflavin T, 72 h at 50° C (no chaperone: 1,324,974,048)
42 | DRFSVNLDVKHFS | 2.64e+08
43 | LTITSSLSSDGV | 3.52e+08
44 | STSLSPFYLRPPSFLRAP | 4.78e+08
45 | ERTIPITRE | 5.77e+08
46 | HGKHEERQDE | 7.96e+08
